From patent US20180163218 come the findings set out here.

Common to all, as to assay: cell_activity
For series [1], the system named is eZFN4 zinc finger nuclease (FokI). To be noted: soybean F1, AtUbi3 promoter; chimeric 4.43%; with CsVMV promoter 0.00% complete, 1.58% chimeric.
Series [2] concerns eZFN4-HF zinc finger nuclease (high fidelity FokI). The settings on record: soybean F1, AtUbi10 promoter; chimeric excision 10.68%.
The subject of series [3] is eZFN2 zinc finger nuclease (FokI). The settings on record: maize; two identical sites flanking aad-1 cassette; 23 of 621 plants.
In series [4] the test system is eZFN14 zinc finger nuclease (FokI). The settings on record: soybean F1, CsVMV promoter; complete excision 0.00%.

For the sequence “GCCTTTTGCAGTTTATCTCTATGCCCGGGACAAGTG (double strand) [eZFN4 binding site]”, the figures for the activity (% complete excision) in series [1] and in series [2] were 0.13 and 1.23, respectively.
The sequence “AAGACTCCCGCCCATCTCTCTATGCCCGGGACAAGTG (double strand) [eZFN2 binding site]” gave an activity (% F1 plants with aad-1 excised) in series [3] of 3.7.
On to “TGGTCATCCTCATCCTGTCTATGCCCGGGACAAGTG (double strand) [eZFN14 binding site]”, for which the activity (% chimeric excision) in series [4] was found to be 2.82.
